The results in this text go back to the supplement of paper PMC10567573.

The chains are these.
B1: ZNF449 (parent)
chain: YRHQRLHTGERPYECTVCKKRFTR
B2: C8orf76 (parent)
chain: LYLQLAICSSLQNLEKTIFCLQKL
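Further: lentivirally expressed fusions sorted by FACS into six bins by GFP to DsRed ratio, PSI derived from sequencing read proportions per bin multiplied by bin number.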

One data set covers variants of B1. Kind of data set: protein stability index of a GFP-peptide fusion (GPS, HEK-293T) (PSI 1-6); higher = more stable. Conditions: c terminus: a fixed tail appended.
YRIQRLHTGERPYECTVCKKRFTR [H3I]: the protein stability index came out at 2.12. Take YRRQRLHTGERPYECTVCKKRFTR [H3R]: the protein stability index was 2.44. Consider YRHVRLHTGERPYECTVCKKRFTR [Q4V], for which the protein stability index came to 2.13. Still for that read-out and setting: under YRHGRLHTGERPYECTVCKKRFTR [Q4G] stands 2.34. The same measure, in the same setting: under YRHQILHTGERPYECTVCKKRFTR [R5I] stands 1.89; under YRHQLLHTGERPYECTVCKKRFTR [R5L], 2.15; under YRHQRLLTGERPYECTVCKKRFTR [H7L], 2.15. Still for that read-out and setting: under YRHQRLETGERPYECTVCKKRFTR [H7E] stands 2.09; under YRHQRLVTGERPYECTVCKKRFTR [H7V], 2.18; under YRHQRLHTGERPYECTWCKKRFTR [V17W], 2.28. Consider YRHQRLHTGERPYECTTCKKRFTR [V17T], for which the protein stability index amounted to 2.85. As for YRHQRLHTGERPYECTVCKKYFTR [R21Y], the protein stability index was 2.49.

Take YRHQRLHTGERPWECTVCKKRFTR [Y13W]: the protein stability index was 2.44.

In the case of YRHQRLHQGERPYECTVCKKRFTR [T8Q], the protein stability index came out at 2.59. In the case of YRHQRLHHGERPYECTVCKKRFTR [T8H], the protein stability index came out at 2.7.

On to YRHQRLHMGERPYECTVCKKRFTR [T8M], for which the protein stability index came out at 2.83.

With YRHQRLHTGERPYICTVCKKRFTR [E14I], the protein stability index was 2.77. Still for that read-out and setting: under YRHQRLHTGERPYACTVCKKRFTR [E14A] stands 2.5.

As to YRHQRLHTGERPYRCTVCKKRFTR [E14R], the protein stability index turned out to be 2.6. With YRHQRLHTGERPYECTVCKPRFTR [K20P], the protein stability index worked out at 2.69.

As to YRHQRLHTGERPYECTVCKYRFTR [K20Y], the protein stability index worked out at 2.46. Still for that read-out and setting: under YRHQRLHTGERPYECTVCKKRFCR [T23C] stands 2.7; under YRHQRLHTGERPYECTVCKKRFQR [T23Q], 2.16. Still for that read-out and setting: with YRHQRLHTGERGYECTVCKKRFTR [P12G] the figure was 2.21.

On to YRHQRLHTGNRPYECTVCKKRFTR [E10N], for which the protein stability index came to 2.6. Same read-out and setting: under YRHQRLHTGGRPYECTVCKKRFTR [E10G] stands 2.24; under YRHQRGHTGERPYECTVCKKRFTR [L6G], 2.61. As for YRHQRIHTGERPYECTVCKKRFTR [L6I], the protein stability index stood at 2.37. For YRHQRLHTGERPYECTVTKKRFTR [C18T], the protein stability index was 3.6.

As for YRHQRLHTGEPPYECTVCKKRFTR [R11P], the protein stability index was found to be 2.33. With YRHQRLHTGERPYECTVCKKRFTT [R24T], the protein stability index stood at 2.26. For the variant YRHQRLHTGERPYECTVCKKRFTG [R24G], the protein stability index stood at 2.44. Consider YFHQRLHTGERPYECTVCKKRFTR [R2F], for which the protein stability index came out at 1.88. As for YAHQRLHTGERPYECTVCKKRFTR [R2A], the protein stability index turned out to be 1.81. Same read-out and setting: under YRHQRLHTIERPYECTVCKKRFTR [G9I] stands 2.4; under YRHQRLHTWERPYECTVCKKRFTR [G9W], 1.91. Same read-out and setting: with CRHQRLHTGERPYECTVCKKRFTR [Y1C] the figure was 3.93. The same measure, in the same setting: with LRHQRLHTGERPYECTVCKKRFTR [Y1L] the figure was 2.83; with SRHQRLHTGERPYECTVCKKRFTR [Y1S], 3.05; with GRHQRLHTGERPYECTVCKKRFTR [Y1G], 2.21. Turning to YRHQRLHTGERPYECTVCKKRQTR [F22Q], the protein stability index is 2.66.

Regarding YRHQRLHTGERPYECTVCKKRPTR [F22P], the protein stability index was found to be 2.98. The same measure, in the same setting: with YRHQRLHTGERPYECTVCKKRLTR [F22L] the figure was 2.87. Turning to YRHQRLHTGERPYECTVCFKRFTR [K19F], the protein stability index is 2.33.

The variants in a further data set derive from B2. Described as above. Particulars: c terminus: a fixed tail appended.
In the case of LYDQLAICSSLQNLEKTIFCLQKL [L3D], the protein stability index is 2.73.

As for LYNQLAICSSLQNLEKTIFCLQKL [L3N], the protein stability index was found to be 1.34.

On to LYTQLAICSSLQNLEKTIFCLQKL [L3T], for which the protein stability index was determined as 4.08.

LYEQLAICSSLQNLEKTIFCLQKL [L3E]: the protein stability index turned out to be 2.56.

For LYPQLAICSSLQNLEKTIFCLQKL [L3P], the protein stability index turned out to be 1.81. The same measure, in the same setting: with LYVQLAICSSLQNLEKTIFCLQKL [L3V] the figure was 3.09. Still for that read-out and setting: with LYAQLAICSSLQNLEKTIFCLQKL [L3A] the figure was 3.31; with LYSQLAICSSLQNLEKTIFCLQKL [L3S], 3.2. As to LYCQLAICSSLQNLEKTIFCLQKL [L3C], the protein stability index is 4.32. The same measure, in the same setting: under LYRQLAICSSLQNLEKTIFCLQKL [L3R] stands 4.15.

For LYLELAICSSLQNLEKTIFCLQKL [Q4E], the protein stability index came to 1.65. Same read-out and setting: under LYLSLAICSSLQNLEKTIFCLQKL [Q4S] stands 4.32. On the same count and under the same terms, with LYLALAICSSLQNLEKTIFCLQKL [Q4A] the figure was 1.92; with LYLMLAICSSLQNLEKTIFCLQKL [Q4M], 3.43. The same measure, in the same setting: with LYLTLAICSSLQNLEKTIFCLQKL [Q4T] the figure was 2.97; with LYLDLAICSSLQNLEKTIFCLQKL [Q4D], 2.74; with LYLWLAICSSLQNLEKTIFCLQKL [Q4W], 1.41.

Consider LYLRLAICSSLQNLEKTIFCLQKL [Q4R], for which the protein stability index worked out at 4.03. LYLKLAICSSLQNLEKTIFCLQKL [Q4K]: the protein stability index turned out to be 2.11. Consider LYLFLAICSSLQNLEKTIFCLQKL [Q4F], for which the protein stability index was 2.22.

LYLCLAICSSLQNLEKTIFCLQKL [Q4C]: the protein stability index was 5.01. As to LYLILAICSSLQNLEKTIFCLQKL [Q4I], the protein stability index was 2.44. Still for that read-out and setting: under LYLVLAICSSLQNLEKTIFCLQKL [Q4V] stands 3.48; under LYLQFAICSSLQNLEKTIFCLQKL [L5F], 3.72.

On to LYLQCAICSSLQNLEKTIFCLQKL [L5C], for which the protein stability index came to 1.79. The same measure, in the same setting: under LYLQEAICSSLQNLEKTIFCLQKL [L5E] stands 1.79. The same measure, in the same setting: with LYLQGAICSSLQNLEKTIFCLQKL [L5G] the figure was 3.09; with LYLQAAICSSLQNLEKTIFCLQKL [L5A], 1.65. The same measure, in the same setting: under IYLQLAICSSLQNLEKTIFCLQKL [L1I] stands 2.57; under PYLQLAICSSLQNLEKTIFCLQKL [L1P], 3.08. With SYLQLAICSSLQNLEKTIFCLQKL [L1S], the protein stability index is 3.44. Take NYLQLAICSSLQNLEKTIFCLQKL [L1N]: the protein stability index was 3.07. As to DYLQLAICSSLQNLEKTIFCLQKL [L1D], the protein stability index was determined as 4.64. Same read-out and setting: with TYLQLAICSSLQNLEKTIFCLQKL [L1T] the figure was 2.99; with VYLQLAICSSLQNLEKTIFCLQKL [L1V], 2.57.

For the variant EYLQLAICSSLQNLEKTIFCLQKL [L1E], the protein stability index is 3.38. Still for that read-out and setting: under LWLQLAICSSLQNLEKTIFCLQKL [Y2W] stands 3.02; under LILQLAICSSLQNLEKTIFCLQKL [Y2I], 3.14. The same measure, in the same setting: with LELQLAICSSLQNLEKTIFCLQKL [Y2E] the figure was 3.3; with LVLQLAICSSLQNLEKTIFCLQKL [Y2V], 3.11. Take LDLQLAICSSLQNLEKTIFCLQKL [Y2D]: the protein stability index was determined as 1.07.

For the variant LHLQLAICSSLQNLEKTIFCLQKL [Y2H], the protein stability index is 3.59. LRLQLAICSSLQNLEKTIFCLQKL [Y2R]: the protein stability index came to 4.79.

Regarding LSLQLAICSSLQNLEKTIFCLQKL [Y2S], the protein stability index is 2.26. The same measure, in the same setting: with LKLQLAICSSLQNLEKTIFCLQKL [Y2K] the figure was 2.42; with LFLQLAICSSLQNLEKTIFCLQKL [Y2F], 2.5; with LTLQLAICSSLQNLEKTIFCLQKL [Y2T], 2.08.

Consider LPLQLAICSSLQNLEKTIFCLQKL [Y2P], for which the protein stability index came out at 1.62.

In the case of LCLQLAICSSLQNLEKTIFCLQKL [Y2C], the protein stability index is 1.42.

With LNLQLAICSSLQNLEKTIFCLQKL [Y2N], the protein stability index amounted to 2.69.
